Measured values as given in PMC6197226, “ZZ-dependent regulation of p62/SQSTM1 in autophagy” (Nature Communications, 2018).

Molecular target: T1, p62 ZZ domain (aa 115-190) (human, UniProt Q13501 115-190)
T1 construct: p62/SQSTM1 ZZ domain, human, aa 115-190; uniformly 15N-labeled for NMR; unlabeled for MST; also called p62_(ZZ (115-190)); source: E. coli BL21 (DE3) RIL, purified (glutathione Sepharose, size exclusion)
Assay: MST; displacement assay: unlabeled peptide added to a preformed complex of 40 uM ZZ (aa 115-190) and 80 nM FAM-labeled peptide; Ki from IC50, called Kd in the text; 10 mM HEPES pH 7.4, 150 mM NaCl, 1 mM TCEP; triplicates
Conditions: both partners purified

B1: K100EKKECRRDHR110 (p62_(100-110)) peptide (peptide)
peptide: KEKKECRRDHR
notes: p62/SQSTM1 regulatory linker between PB1 and ZZ, aa 100-110; also called RL peptide; RL; source: synthetic peptide (SynPeptide or KE BioChem)
For B1, the Kd was 320 µM.
